Assay results reported in patent US20070178095A1.

Tests used:
Test in all cases: ELISA, growth factor coated at 10 ug/ml, antibody at 10 ug/ml, mean of duplicate wells
[1] = target: BMP-2 (R&D Systems 355-BEC/CF) (UniProt P12643)
[2] = target: recombinant mouse myostatin (R&D systems, Cat. #788-G8/CF, carrier-free) (mouse) (UniProt O08689)
[3] = target: Activin B (R&D Systems 659-AB) (UniProt P09529)
[4] = target: IGF-1 (R&D Systems 291-G1) (UniProt P05019)
[5] = target: TGF-beta1 (Peprotech, Inc. 100-21R) (UniProt P01137)
Chain of TGF-beta1 (Peprotech, Inc. 100-21R) (P01137 279-390 limits assumed): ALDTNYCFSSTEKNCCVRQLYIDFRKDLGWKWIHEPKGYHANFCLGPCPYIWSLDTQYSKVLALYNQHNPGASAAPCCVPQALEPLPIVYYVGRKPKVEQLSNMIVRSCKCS

[6] = target: TGF-alpha (R&D Systems 239-A) (UniProt P01135)
Chain of TGF-alpha (R&D Systems 239-A) (P01135 40-89 limits assumed): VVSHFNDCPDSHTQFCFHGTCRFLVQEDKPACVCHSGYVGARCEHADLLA

[7] = target: recombinant human GDF-11 (Peprotech, Inc., Cat. # 120-11, carrier-free) (human) (UniProt O95390)
Chain of recombinant human GDF-11 (Peprotech, Inc., Cat. # 120-11, carrier-free) (human) (O95390 299-407 limits assumed): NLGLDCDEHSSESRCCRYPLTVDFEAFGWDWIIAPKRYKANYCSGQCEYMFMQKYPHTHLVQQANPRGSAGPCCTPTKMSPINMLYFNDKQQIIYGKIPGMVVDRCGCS

[8] = target: BMP-5 (R&D Systems 615-BM) (UniProt P22003)
Chain of BMP-5 (R&D Systems 615-BM) (P22003 317-454 limits assumed): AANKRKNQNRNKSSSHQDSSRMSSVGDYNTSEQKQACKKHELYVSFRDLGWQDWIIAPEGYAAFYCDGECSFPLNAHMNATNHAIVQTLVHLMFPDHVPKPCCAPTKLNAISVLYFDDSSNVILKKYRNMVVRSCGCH

[9] = target: BMP-7 (R&D Systems 354-BP) (UniProt P18075)
Chain of BMP-7 (R&D Systems 354-BP) (P18075 293-431 limits assumed): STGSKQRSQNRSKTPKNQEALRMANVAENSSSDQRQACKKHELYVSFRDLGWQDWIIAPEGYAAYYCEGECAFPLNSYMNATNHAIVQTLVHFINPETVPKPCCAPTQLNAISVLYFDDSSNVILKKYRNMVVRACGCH

[10] = target: Activin A (R&D Systems 338-AC) (UniProt P08476)
Chain of Activin A (R&D Systems 338-AC) (P08476 311-426 limits assumed): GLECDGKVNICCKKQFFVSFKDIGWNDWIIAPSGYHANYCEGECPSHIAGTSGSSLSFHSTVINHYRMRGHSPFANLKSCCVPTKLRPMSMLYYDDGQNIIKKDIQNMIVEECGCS

[11] = target: TGF-beta2 (Peprotech, Inc. 100-35) (UniProt P61812)
Chain of TGF-beta2 (Peprotech, Inc. 100-35) (P61812 303-414 limits assumed): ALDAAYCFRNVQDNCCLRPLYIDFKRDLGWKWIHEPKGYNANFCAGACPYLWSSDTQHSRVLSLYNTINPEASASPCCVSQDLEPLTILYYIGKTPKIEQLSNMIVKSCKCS

[12] = target: BMP-6 (R&D Systems 507-BP) (UniProt P22004)
Chain of BMP-6 (R&D Systems 507-BP) (P22004 382-513 limits assumed): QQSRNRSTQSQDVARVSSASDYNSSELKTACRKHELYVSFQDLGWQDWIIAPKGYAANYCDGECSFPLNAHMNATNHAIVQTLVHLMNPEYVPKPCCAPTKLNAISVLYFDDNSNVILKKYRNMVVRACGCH

Chain of recombinant mouse myostatin (R&D systems, Cat. #788-G8/CF, carrier-free) (mouse) (O08689 268-376): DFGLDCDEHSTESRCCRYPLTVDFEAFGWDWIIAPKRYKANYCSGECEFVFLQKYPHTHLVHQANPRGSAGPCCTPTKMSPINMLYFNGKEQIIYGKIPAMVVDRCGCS
Chain of Activin B (R&D Systems 659-AB) (P09529 293-407 limits assumed): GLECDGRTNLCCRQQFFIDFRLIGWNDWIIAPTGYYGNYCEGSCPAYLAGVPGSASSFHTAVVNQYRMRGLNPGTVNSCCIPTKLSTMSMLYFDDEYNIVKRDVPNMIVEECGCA
Chain of BMP-2 (R&D Systems 355-BEC/CF) (P12643 283-396 limits assumed): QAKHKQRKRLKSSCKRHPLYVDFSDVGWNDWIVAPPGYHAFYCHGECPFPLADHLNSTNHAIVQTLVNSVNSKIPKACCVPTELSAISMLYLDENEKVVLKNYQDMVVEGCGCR
Chain of IGF-1 (R&D Systems 291-G1) (P05019 49-118 limits assumed): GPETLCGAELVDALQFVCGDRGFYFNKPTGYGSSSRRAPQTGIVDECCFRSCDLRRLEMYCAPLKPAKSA

absorbance at 490 nm [1]: 0.0525 OD 490 nm
absorbance at 490 nm [2]: 2.94 OD 490 nm
absorbance at 490 nm [3]: 0.0485 OD 490 nm
absorbance at 490 nm [4]: 0.045 OD 490 nm
absorbance at 490 nm [5]: 0.0425 OD 490 nm
absorbance at 490 nm [6]: 0.0445 OD 490 nm
absorbance at 490 nm [7]: 2.62 OD 490 nm
absorbance at 490 nm [8]: 0.038 OD 490 nm
absorbance at 490 nm [9]: 0.042 OD 490 nm
absorbance at 490 nm [10]: 0.049 OD 490 nm
absorbance at 490 nm [11]: 0.0525 OD 490 nm
absorbance at 490 nm [12]: 0.0745 OD 490 nm
Substance: polyclonal anti-myostatin antibody (R&D Systems, catalog #AF788)
